Experimental data from patent US20040053872, “New sequences” (published 2004).

Key:
[1] = molecular target: T1, HIV-1 RT reference (HIV-1 subtype B (clone BH10), UniProt P03366;P03366 P03366:600-1159,P03366:600-1039); experiment: inhibition; second strand DNA synthesis, 33 C
[2] = molecular target: T1, HIV-1 RT reference; experiment: competition; BIC50, RT binding to template/primer; 33 C
[3] = molecular target: T1, HIV-1 RT reference; experiment: competition; BIC50, RT binding to primer; 33 C
[4] = molecular target: T1, HIV-1 RT reference; experiment: inhibition; RNA-dependent DNA polymerisation, 33 C; conditions: hairpin
[5] = molecular target: T1, HIV-1 RT reference; experiment: inhibition; RNA-dependent DNA polymerisation, preincubated 30 min, 33 C; conditions: two stem-loops (D and anticodon)
[6] = two stem-loops (D and anticodon)

| Binder | IC50 ([1]; hairpin) | IC50 ([2]; hairpin) | IC50 ([3]; hairpin) | IC50 [4] | IC50 [1, 6] | IC50 [2, 6] | IC50 [3, 6] | IC50 [5] |
| --- | --- | --- | --- | --- | --- | --- | --- | --- |
| CAGACUUUUAAUCUG (ssRNA, PS all linkages) [compound 198 (15-mer anticodon stem-loop)] | 0.55 µM | 0.9 µM | 0.1 µM | 0.47 µM | – | – | – | – |
| GCUCAGUCGGUAGAGCAUCAGACUUUUAAUCUGAG (ssRNA) [compound 199] | – | – | – | – | 0.04 µM | 0.007 µM | 0.002 µM | 0.0066 µM |
